Assay results from the supplement of paper PMC9732359.
± gives the uncertainty stated by the source.

Test: protein stability index of a GFP-peptide fusion (yeast GPS) (PSI 1-4); higher = more stable; sorted into four equal gates, so the index is relative within each strain
Outline: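 Tiled yeast protein peptides of 17 residues were each joined downstream of GFP, on plasmids that also express Cherry. The pooled library was maintained in yeast, and mid-log cultures in leucine-free medium were sorted into four equal gates on the GFP/Cherry ratio. Plasmids from every gate were amplified by PCR and sequenced on Illumina, with barcodes linking reads to strains. The protein stability index of a peptide is its gate-number-weighted read frequency summed over the gates.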

| Sequence | protein stability index (doa10∆) | protein stability index (pdr5∆) | protein stability index (san1∆) | protein stability index (ubr1∆) |
| --- | --- | --- | --- | --- |
| FQAVIQKSINHPPDFKR [SNF2] | 2.8 ± 0.12 | 2.98 ± 0.19 | 3.02 ± 0.14 | 3.19 ± 0.11 |
| VDRLKIGGSLARIALRH [RPS25A] | 2.66 ± 0.13 | 2.1 ± 0.07 | 2.01 ± 0.073 | 1.8 ± 0.096 |
| EYRDLYTNSVELRSLSK [YMR129W/POM152] | 3.18 ± 0.082 | 3.27 ± 0.072 | 3.24 ± 0.065 | 2.79 ± 0.29 |
| LTGEAEIEQPVTTFVFT [FAS1] | 3.16 ± 0.083 | 2.98 ± 0.067 | 2.64 ± 0.096 | 2.4 ± 0.055 |
| RFKNSVKWYHFDHNDKK [PRE7] | 2.32 ± 0.057 | 2.76 ± 0.064 | 2.69 ± 0.043 | 2.62 ± 0.043 |
| HDYWNKIMQSISNKDVI [SRB4] | 1.85 ± 0.27 | 1.62 ± 0.23 | 1.33 ± 0.19 | – |
| TGATSLFGSSNNNNNNN [YGL172W/NUP49] | 2.39 ± 0.046 | 2.07 ± 0.038 | 2.34 ± 0.056 | 2.42 ± 0.043 |
| SKKDPRILKNVSPNDNN [YMR153W/NUP53] | 2.65 ± 0.069 | 2.36 ± 0.045 | 2.42 ± 0.054 | 2.47 ± 0.034 |
| LTIVTCKQFPKLSCIQL [SRB8] | 1.99 ± 0.07 | 1.86 ± 0.058 | 1.46 ± 0.05 | 1.6 ± 0.03 |
| AINLMGVKNNLLTPKSG [RPO31] | 3.11 ± 0.13 | 2.76 ± 0.12 | 2.76 ± 0.13 | 2.63 ± 0.11 |
| PRGTAKLIIHRKNDNAN [SMC3] | 1.68 ± 0.29 | 2.34 ± 0.18 | – | 1.95 ± 0.087 |
| LLHETNDSFKGLITNKM [PRP8] | 3 ± 0.16 | 2.8 ± 0.071 | 3.06 ± 0.12 | 3.24 ± 0.12 |
| KASRKSVGLPSKVASSL [ECM29] | 2.81 ± 0.055 | 2.79 ± 0.066 | 2.69 ± 0.056 | 2.84 ± 0.052 |
| IKVEGAVGNLGNAVTVT [RPL22A] | 3.39 ± 0.14 | 3.18 ± 0.13 | 3.15 ± 0.083 | 3.06 ± 0.079 |
| EQFYTKDIIDPKLTSIF [RPN2] | 2.32 ± 0.11 | 2.92 ± 0.11 | 2.36 ± 0.11 | 2.47 ± 0.09 |
| AAPLLALLRENQDSVKT [RPN2] | 2.55 ± 0.18 | 3.23 ± 0.1 | 3 ± 0.15 | 2.6 ± 0.11 |
| LDALTRHIKSKHEDLSL [RPN4] | 2.54 ± 0.062 | 2.08 ± 0.068 | 1.57 ± 0.089 | 2.61 ± 0.059 |
| NIGETAGVVQDIGSDPT [RPB9] | 2.77 ± 0.089 | 3.25 ± 0.085 | 2.72 ± 0.11 | 2.92 ± 0.056 |
| FVKNIRMLSFEDISKAT [RPN9] | 2.66 ± 0.063 | 1.86 ± 0.076 | 1.91 ± 0.078 | 1.93 ± 0.053 |
| QINPTRETNDDIWRVAG [SNF2] | 2.6 ± 0.064 | 2.26 ± 0.066 | 2.25 ± 0.069 | 2.14 ± 0.052 |
| PKEPRLKSQMDTSKALL [SKI6] | – | 3.17 ± 0.18 | – | – |
| DKKKGQNVTSETHSKKR [ITC1] | 3.1 ± 0.087 | 3.12 ± 0.076 | 3.16 ± 0.061 | 3.04 ± 0.039 |
| IKSIIEQRKQKLSKILP [SMC3] | 2.44 ± 0.084 | 2.7 ± 0.091 | 2.52 ± 0.081 | 2.82 ± 0.078 |
| EYMKRHPTTIESLREIP [SEC65] | 3.25 ± 0.082 | 3.21 ± 0.068 | 3.17 ± 0.059 | 3.06 ± 0.06 |
| KIFIKDPKFVNSLLAKL [YML103C/NUP188] | 2.25 ± 0.14 | 2.25 ± 0.063 | 1.72 ± 0.1 | 2.39 ± 0.068 |
| DSDMLTKSHNTVQSWLC [NUT1] | 2.53 ± 0.18 | 2.63 ± 0.22 | – | 2.87 ± 0.078 |
| KESWDPNTTKTKLRAFV [YGR119C/NUP57] | 3.5 ± 0.22 | 2.93 ± 0.19 | 3.37 ± 0.12 | 2.77 ± 0.1 |
